The supplement of paper PMC10065799, “High-throughput profiling of sequence recognition by tyrosine kinases and SH2 domains using bacterial peptide display” (eLife, 2023)

Molecular target: EPHB2 (UniProt P29323)
Assay: phosphorylation enrichment, bacterial display (enrichment ratio); higher = better substrate or ligand; peptides without Tyr show the background
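Also: 11-residue human phosphosite peptides and single-mutation variants displayed on the E. coli surface, counted by deep sequencing, each peptide's frequency after selection divided by its frequency in the unselected input library; frequency after pTyr selection over input frequency; kinase dosed for 20-30% of maximal phosphorylation in three min.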

EPHB2, sequence (P29323 whole entry, looked up): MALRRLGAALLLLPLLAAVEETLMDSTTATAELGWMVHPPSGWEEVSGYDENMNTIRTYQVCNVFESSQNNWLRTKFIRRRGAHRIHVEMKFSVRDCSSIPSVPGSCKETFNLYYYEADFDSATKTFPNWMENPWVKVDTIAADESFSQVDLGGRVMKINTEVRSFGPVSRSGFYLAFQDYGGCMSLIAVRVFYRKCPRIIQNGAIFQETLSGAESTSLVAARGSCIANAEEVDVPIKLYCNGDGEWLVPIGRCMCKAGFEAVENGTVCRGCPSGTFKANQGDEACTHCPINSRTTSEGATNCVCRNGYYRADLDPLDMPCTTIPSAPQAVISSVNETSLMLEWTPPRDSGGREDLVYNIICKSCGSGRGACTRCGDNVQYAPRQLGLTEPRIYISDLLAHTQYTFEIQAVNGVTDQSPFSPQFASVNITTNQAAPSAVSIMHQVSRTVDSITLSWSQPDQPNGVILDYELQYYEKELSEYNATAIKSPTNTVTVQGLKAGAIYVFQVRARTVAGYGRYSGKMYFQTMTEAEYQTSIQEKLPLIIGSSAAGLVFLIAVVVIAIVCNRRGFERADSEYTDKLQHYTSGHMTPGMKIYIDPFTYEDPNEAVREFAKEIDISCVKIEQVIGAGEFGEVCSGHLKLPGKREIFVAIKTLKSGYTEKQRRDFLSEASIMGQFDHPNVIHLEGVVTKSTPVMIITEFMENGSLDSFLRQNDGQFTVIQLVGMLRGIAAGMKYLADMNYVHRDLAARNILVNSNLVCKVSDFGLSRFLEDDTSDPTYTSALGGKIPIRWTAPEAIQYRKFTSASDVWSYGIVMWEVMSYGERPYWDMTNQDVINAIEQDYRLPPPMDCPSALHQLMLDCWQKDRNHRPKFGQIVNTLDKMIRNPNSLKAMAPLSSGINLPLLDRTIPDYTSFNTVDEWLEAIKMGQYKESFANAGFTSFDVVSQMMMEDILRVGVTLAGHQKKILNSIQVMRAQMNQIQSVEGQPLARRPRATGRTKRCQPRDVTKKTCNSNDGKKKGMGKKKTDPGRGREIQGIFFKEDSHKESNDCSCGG

Row | Sequence | phosphorylation enrichment
1 | AKAEIYEMRPL [COX10_Y97] | 6.54
2 | FDEFRYRSVIK [CFTR_Y517_YF] | 0.472
3 | SARSAYQEAMD [SFN_Y151] | 0.584
4 | VDTFWYKFLKP [EPM2A_Y86_R91P] | 0.533
5 | QQLQGYVPSNF [FRK_Y99_I100V_YF] | 0.664
6 | MAFDRYAAICS [OR8H2_Y123_H120Y_YF] | 0.998
7 | TINPIYEHVGY [CHN1_Y143] | 26.2
8 | VYSTDCYRVGG [NTRK2_Y706_Y706C] | 1.01
9 | GRQVIYTENER [GPR143_Y231_G229V] | 0.41
10 | RPDSPYSRLHD [DOK2_Y271_P274L] | 0.467
11 | SVVVSYEPPEV [TP53_Y220_P219S] | 0.579
12 | YEPDAYDDLDQ [ELP5_Y302] | 0.523
13 | QRAADYFSQQM [GBP6_Y333_YF] | 0.57
14 | RDEHGYISRCF [HSPB1_Y133_Q128R] | 1.15
15 | VITTLYIGFLG [KCNQ1_Y267_L262V] | 0.636
16 | STGRSYAGVAV [KLHL3_Y577] | 0.3
17 | KNNDGNIDFAE [MCFD2_Y135_Y135N_YF] | 0.673

Row | Sequence | phosphorylation enrichment
18 | EKNANYKEGTF [CLRN1_Y171_I168N_YF] | 0.445
19 | EKMWTYMPSAE [GRIA4_Y695_R697P] | 0.474
20 | TTKGSYSLYVR [HCK_Y180_S183Y] | 0.581
21 | FYLGAYDRFLP [SLC22A5_Y486_V481F] | 2.06
22 | FEEDSYVTRSQ [RET_Y905_K907T_YF] | 0.829
23 | DLAGRYYALRS [CKB_Y173_K177R] | 0.439
24 | ARGTRYRYVSQ [UCN3_Y95] | 0.461
25 | PGIRMYQVQFN [LRFN1_Y454_YF] | 0.505
26 | LEVPLYKNGVK [CPS1_Y1069_A1065E] | 0.43
27 | QTEAQYRFIYM [PTPN11_Y511] | 0.782
28 | RLLVVYSWTQR [HBB_Y36_P37S] | 0.593
29 | KACKHYLTKRT [ZBTB5_Y118_T121K] | 0.662
30 | STSKTYVISRT [RBBP6_Y87] | 0.426
31 | VDGSLYETHPQ [HK1_Y417_K418E] | 2.37
32 | KFMVGYEMLAK [GALT_Y339_Q344K] | 0.604
33 | IIEDPYFGNDF [ACP1_Y132_S137F_YF] | 0.695

System: c-Src
Assay: as above

Row | Sequence | phosphorylation enrichment
34 | AKAEIYEMRPL [COX10_Y97] | 9.82
35 | FDEFRYRSVIK [CFTR_Y517_YF] | 0.46
36 | SARSAYQEAMD [SFN_Y151] | 0.353
37 | VDTFWYKFLKP [EPM2A_Y86_R91P] | 0.43
38 | QQLQGYVPSNF [FRK_Y99_I100V_YF] | 0.904
39 | MAFDRYAAICS [OR8H2_Y123_H120Y_YF] | 0.576
40 | TINPIYEHVGY [CHN1_Y143] | 8.55
41 | VYSTDCYRVGG [NTRK2_Y706_Y706C] | 2.23
42 | GRQVIYTENER [GPR143_Y231_G229V] | 0.513
43 | RPDSPYSRLHD [DOK2_Y271_P274L] | 0.884
44 | SVVVSYEPPEV [TP53_Y220_P219S] | 0.432
45 | YEPDAYDDLDQ [ELP5_Y302] | 0.482
46 | QRAADYFSQQM [GBP6_Y333_YF] | 0.687
47 | RDEHGYISRCF [HSPB1_Y133_Q128R] | 0.675
48 | VITTLYIGFLG [KCNQ1_Y267_L262V] | 1.84
49 | STGRSYAGVAV [KLHL3_Y577] | 0.302
50 | KNNDGNIDFAE [MCFD2_Y135_Y135N_YF] | 0.462

Row | Sequence | phosphorylation enrichment
51 | EKNANYKEGTF [CLRN1_Y171_I168N_YF] | 0.389
52 | EKMWTYMPSAE [GRIA4_Y695_R697P] | 0.329
53 | TTKGSYSLYVR [HCK_Y180_S183Y] | 0.373
54 | FYLGAYDRFLP [SLC22A5_Y486_V481F] | 3.62
55 | FEEDSYVTRSQ [RET_Y905_K907T_YF] | 0.617
56 | DLAGRYYALRS [CKB_Y173_K177R] | 0.487
57 | ARGTRYRYVSQ [UCN3_Y95] | 0.572
58 | PGIRMYQVQFN [LRFN1_Y454_YF] | 0.583
59 | LEVPLYKNGVK [CPS1_Y1069_A1065E] | 0.321
60 | QTEAQYRFIYM [PTPN11_Y511] | 1.23
61 | RLLVVYSWTQR [HBB_Y36_P37S] | 0.872
62 | KACKHYLTKRT [ZBTB5_Y118_T121K] | 0.581
63 | STSKTYVISRT [RBBP6_Y87] | 0.444
64 | VDGSLYETHPQ [HK1_Y417_K418E] | 0.918
65 | KFMVGYEMLAK [GALT_Y339_Q344K] | 0.406
66 | IIEDPYFGNDF [ACP1_Y132_S137F_YF] | 2.98
